Paper PMC3424542

Molecular target: T1, XtrLin28b CSD (Xenopus tropicalis, UniProt B4F6I0 27-114)
T1 sequence: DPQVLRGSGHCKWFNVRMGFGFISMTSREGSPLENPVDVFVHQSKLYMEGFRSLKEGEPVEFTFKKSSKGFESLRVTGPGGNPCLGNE
Test: crystal structure

UUUUUU (ssRNA) [rU6]: binds.
